The assay deals with recombinant IL18 (YK27-1) (Homo sapiens (Human)) (UniProt Q14116). Description: cell-based or functional assay.

These results are taken from patent US20050100965A1.

B1: Murine anti-human IL-18 mAb (125-2H) (antibody, from another filing, V domains shown)
VH: EIQLQQSGPELVKPGASVKVSCKASGYSFTDYFIYWVKQSHGKSLEWIGDIDPYNGDTSYNQKFRDKATLTVDQSSTTAFMHLNSLTSEDSAVYFCARGLRFWGQGTLVTVSA
VL: DIQMTQSPSSLSASLGERVSLTCRASQDIGSKLYWLQQEPDGTFKRLIYATSSLDSGVPKRFSGSRSGSDYSLTISSLESEDFVDYYCLQYASSPYTFGGGTKLAIKR
For B1, the IFN (interferon γ) transcript level, quantitative PCR, whole blood stimulated with IL18+IL12, donor1n (Unstimulated 0.002, Stimulated 0.339) amounted to 0.07; the IFN (interferon γ) transcript level, quantitative PCR, whole blood stimulated with IL18+IL12, donor 3n (Unstimulated 0.001, Stimulated 0.187) is 0.026; the IFN (interferon γ) transcript level, quantitative PCR, whole blood stimulated with IL18+IL12, donor4n (Unstimulated 0.001, Stimulated 0.082) amounted to 0.027; the IFN (interferon γ) transcript level, quantitative PCR, whole blood stimulated with IL18+IL12, donor 5n (Unstimulated 0.003, Stimulated 0.012) amounted to 0.006. In addition, the IFN (interferon γ) transcript level, quantitative PCR, whole blood stimulated with IL18+IL12, donor6n (Unstimulated 0.002, Stimulated 0.076) worked out at 0.01; the IFN (interferon γ) transcript level, quantitative PCR, whole blood stimulated with IL18+IL12, donor7n (Unstimulated 0.002, Stimulated 0.049) amounted to 0.012; the IFN (interferon γ) transcript level, quantitative PCR, whole blood stimulated with IL18+IL12, donor8n (Unstimulated 0.002, Stimulated 0.049) is 0.012; the IFN (interferon γ) transcript level, quantitative PCR, whole blood stimulated with IL18+IL12, donor 9n (Unstimulated 0.001, Stimulated 1.250) amounted to 0. Besides, the IFN (interferon γ) transcript level, quantitative PCR, whole blood stimulated with IL18+IL12, donor10n (Unstimulated 0.002, Stimulated 0.361) is 0.002.
